# Assay: Particle size of reconstituted freeze dried Factor XI by dynamic light scattering
# Assay type: physicochemical
# Conditions: sample exposed to a pulsed electromagnetic field compared to the control
# Source text: Experiment 1 was repeated but with Hemoleven (Factor XI) in place of the Factor VIII.
substance,measurement,value
"Factor XI: Hemoleven (Factor XI), blood clotting factor",% volume of larger particles,significant reduction

# Source: US20250083113A1, “Apparatus for Improving Hydration and/or Reducing Particle Size of a Product and a Method of Use Thereof” (St Andrews Pharmaceutical Technology Limited, priority 2021, published 2025)
